Test results taken from patent publication US20190241670A1 (BIOCON, published 2019).

Molecular target: T1, rhCD6FC/Chimera (R and D systems) (human, UniProt P30203 25-398)
T1 construct: Bought reagent (R and D systems), coated on the ELISA plate; also called CD6 receptor; Fc part of the bought chimera not given
T1 sequence (looked up): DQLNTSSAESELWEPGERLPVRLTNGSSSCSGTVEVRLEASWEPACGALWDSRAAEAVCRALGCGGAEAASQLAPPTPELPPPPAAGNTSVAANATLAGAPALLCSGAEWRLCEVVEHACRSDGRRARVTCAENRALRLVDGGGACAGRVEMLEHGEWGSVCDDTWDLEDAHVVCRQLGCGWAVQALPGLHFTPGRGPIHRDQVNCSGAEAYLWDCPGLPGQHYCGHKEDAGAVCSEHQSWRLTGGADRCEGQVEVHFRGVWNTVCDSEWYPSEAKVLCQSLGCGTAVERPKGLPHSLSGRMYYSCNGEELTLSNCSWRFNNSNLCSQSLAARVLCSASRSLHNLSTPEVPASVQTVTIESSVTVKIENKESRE
Assay: ELISA, CD6-Fc coated plate, fixed T1h with varying ALCAM-Fc as competitor
Description: When varying concentrations of ALCAM-Fc was incubated along with a fixed concentration of T1h in a CD6-Fc coated ELISA plate, T1h was detected at all concentration of ALCAM-Fc.
The rhCD6FC/Chimera (R and D systems) (100 ≈g/ml) was diluted in coating buffer and 100 ≈l was added to each well of a 96 well Nunc-Maxisorp plate. The plate was then incubated at 4éC overnight. The Plate was washed thrice with PBS Tween 20. Subsequently, 200 ≈l of blocking solution (2% BSA+0.1% Tween 20 in 1×PBS) was added and incubated for 1 hour at 37éC. After incubation, the plate was washed again with PBS Tween thrice, followed by the addition of T1h monoclonal antibody (0.2 mg/ml) and .rhA LCAMFc (R and D systems) at varying concentrations. This was then incubated for an hour at 37éC. The plate was washed 3 times subsequently with PBS Tween. To the wells 200 ≈l of anti human IgG (Fab)₂ ALP (1:20000) diluted in blocking buffer was added and incubated for 1 hour at 37éC. The plate was washed thrice with PBS tween and 200 ≈l of p-Nitrophenyl Phosphate (PNPP) substrate is added to each well and incubated at 37éC till color develops around 15 minutes. Reading was taken at 405 nm using a BIOTEK Micro Plate Reader.

B1: humanized IgG1 isotype anti-CD6 monoclonal antibody (T1h) (antibody, V domains shown)
VH: EVQLVESGGGLVKPGGSLKLSCAASGFKFSRYAMSWVRQAPGKRLEWVATISSGGSYIYYPDSVKGRFTISRDNVKNTLYLQMSSLRSEDTAMYYCARRDYDLDYFDSWGQGTLVTVSS
VL: DIQMTQSPSSLSASVGDRVTITCKASRDIRSYLTWYQQKPGKAPKTLIYYATSLADGVPSRFSGSGSGQDYSLTISSLESDDTATYYCLQHGESPFTLGSGTKLEIK
notes: also called humanized IOR-T1; Itolizumab
binding result: binds
